Measurements as given in paper doi:10.1101/2024.10.16.618688.
Values joined by “and” are separate entries in the source; they are usually repeats but may differ in a detail not shown here. Equal values may be shown once.

Experiments:
[1] = target: NRX1β ECD (aa 81 - 311) labeled with Alexa Fluorophore 488 (mouse) (UniProt P0DI97); assay: fluorescence polarisation
[2] = target: full-length neuroligin 2 (NL2), wild type (mouse) (UniProt Q69ZK9); assay: cryo-EM structure

| Substance | Kd [1] | stoichiometry N (NRX1β per NL2 dimer) [2] | stoichiometry N [2] |
| --- | --- | --- | --- |
| NL2 H279Y G282K mutant (from UniProt Q69ZK9 170-836) (natural protein) | 0.3 µM |  |  |
| full-length neurexin 1β (NRX1β), wild type (from UniProt P0DI97 47-468) (natural protein) |  | 2 and 1 |  |
| full-length neuroligin 2 (NL2), wild type (from UniProt Q69ZK9 15-836) (natural protein) | 6 µM |  | 2 |
